# Measurements published in PMC7755189, “Phosphorylation of seryl-tRNA synthetase by ATM/ATR is essential for hypoxia-induced angiogenesis”.
# Molecular target: SerRS WT (Homo sapiens, UniProt P49591 1-514)
# Experiment: EMSA; EMSA: 20 mM Tris-HCl pH 8.0, 60 mM KCl, 5 mM MgCl2, 0.1 mg/mL BSA, 10 ng/uL poly(dG-dC), 1 mM DTT, 30 min, room temperature; 0.08 pmol labeled DNA; 5% native PAGE
# Conditions: protein: recombinant; tags: C-terminal His6; chain copies: 2; label: 5'-32P; annealed oligonucleotides
# SerRS WT, sequence (P49591 whole entry): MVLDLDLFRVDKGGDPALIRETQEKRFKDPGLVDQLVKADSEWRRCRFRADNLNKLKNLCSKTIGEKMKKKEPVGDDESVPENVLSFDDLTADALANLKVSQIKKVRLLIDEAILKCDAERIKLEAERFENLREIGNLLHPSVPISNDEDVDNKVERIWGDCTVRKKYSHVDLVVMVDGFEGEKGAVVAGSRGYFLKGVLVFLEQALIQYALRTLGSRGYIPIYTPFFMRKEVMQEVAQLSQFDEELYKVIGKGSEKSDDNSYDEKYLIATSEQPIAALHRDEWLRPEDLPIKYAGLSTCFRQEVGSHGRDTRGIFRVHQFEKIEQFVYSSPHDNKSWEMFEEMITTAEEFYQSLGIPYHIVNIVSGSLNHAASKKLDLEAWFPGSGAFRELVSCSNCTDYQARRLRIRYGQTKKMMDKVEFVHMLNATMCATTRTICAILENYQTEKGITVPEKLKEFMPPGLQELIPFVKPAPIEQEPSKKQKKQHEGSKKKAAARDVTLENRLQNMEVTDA
binder,measurement,value
VEGFA promoter SerRS binding site 27 bp (dsDNA) DNA 1: GGCGGGGCGGAGCCATGCGCCCCCCCC DNA 2: GGGGGGGGCGCATGGCTCCGCCCCGCC,binding result,binds
